What was measured:
Jak2 = Jak2 (UniProt O60674); assay: phosphorylation enrichment, bacterial display (enrichment ratio); higher = better substrate or ligand; peptides without Tyr show the background
EPHB2 = EPHB2 (UniProt P29323); assay: as above
Hck = Hck (UniProt P08631); assay: as above
Fyn = Fyn (UniProt P06241); assay: as above
FGFR3 = FGFR3 (UniProt P22607); assay: as above
c-Src = assay: as above
Fer (mouse) = assay: as above
Fes = Fes (UniProt P07332); assay: as above
AncSZ = assay: as above
MERTK = MERTK (UniProt Q12866); assay: as above
FGFR1 = FGFR1 (UniProt P11362); assay: as above
EPHB1 = EPHB1 (UniProt P54762); assay: as above
c-Abl (mouse) = assay: as above
Grb2 SH2 = Grb2 SH2 (UniProt P62993); assay: SH2 binding enrichment of the phosphorylated peptide, bacterial display (enrichment ratio); higher = better substrate or ligand; peptides without Tyr show the background
SHP2-C SH2 = assay: as above
c-Src SH2 = assay: as above
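Wherever SH2 binding enrichment of the phosphorylated peptide, bacterial display is given: peptide library displayed on the E. coli surface as eCPX fusions, selected cells deep-sequenced, score is each peptide's frequency after selection divided by its frequency in the input.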
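Wherever phosphorylation enrichment, bacterial display is given: 11-residue human phosphosite peptides and single-mutation variants displayed on the E. coli surface, counted by deep sequencing, each peptide's frequency after selection divided by its frequency in the unselected input library; frequency after pTyr selection over input frequency; kinase dosed for 20-30% of maximal phosphorylation in three min.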

Grb2 SH2, sequence (P62993 whole entry, looked up): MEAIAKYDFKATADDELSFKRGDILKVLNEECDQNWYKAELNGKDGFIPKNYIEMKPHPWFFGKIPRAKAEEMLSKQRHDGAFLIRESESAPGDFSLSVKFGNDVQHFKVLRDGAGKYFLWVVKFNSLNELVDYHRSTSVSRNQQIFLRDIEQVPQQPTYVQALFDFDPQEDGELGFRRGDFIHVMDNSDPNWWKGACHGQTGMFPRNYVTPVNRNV
FGFR1, sequence (P11362 whole entry, looked up): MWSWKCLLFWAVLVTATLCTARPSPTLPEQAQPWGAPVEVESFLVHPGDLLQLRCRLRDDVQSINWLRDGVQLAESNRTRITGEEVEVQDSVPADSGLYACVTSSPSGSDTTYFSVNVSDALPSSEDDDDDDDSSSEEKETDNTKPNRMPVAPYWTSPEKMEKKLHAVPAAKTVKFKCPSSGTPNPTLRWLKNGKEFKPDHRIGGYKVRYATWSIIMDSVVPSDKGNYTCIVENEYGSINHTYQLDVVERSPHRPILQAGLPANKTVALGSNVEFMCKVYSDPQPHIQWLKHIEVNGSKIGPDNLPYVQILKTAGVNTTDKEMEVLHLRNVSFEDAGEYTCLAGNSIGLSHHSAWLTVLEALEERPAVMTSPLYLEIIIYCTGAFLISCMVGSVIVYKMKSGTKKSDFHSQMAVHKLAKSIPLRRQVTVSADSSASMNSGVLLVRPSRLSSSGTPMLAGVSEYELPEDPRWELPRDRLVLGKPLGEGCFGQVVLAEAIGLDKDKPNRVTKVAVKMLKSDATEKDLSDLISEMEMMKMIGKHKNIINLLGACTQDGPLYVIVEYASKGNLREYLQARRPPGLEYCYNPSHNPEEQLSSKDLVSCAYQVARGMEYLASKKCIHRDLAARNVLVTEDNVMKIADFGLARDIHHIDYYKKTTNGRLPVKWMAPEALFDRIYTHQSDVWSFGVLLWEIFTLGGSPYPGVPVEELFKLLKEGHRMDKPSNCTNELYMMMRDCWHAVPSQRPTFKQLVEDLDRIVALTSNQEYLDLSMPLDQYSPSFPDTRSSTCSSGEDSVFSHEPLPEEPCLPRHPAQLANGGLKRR
FGFR3, sequence (P22607 whole entry, looked up): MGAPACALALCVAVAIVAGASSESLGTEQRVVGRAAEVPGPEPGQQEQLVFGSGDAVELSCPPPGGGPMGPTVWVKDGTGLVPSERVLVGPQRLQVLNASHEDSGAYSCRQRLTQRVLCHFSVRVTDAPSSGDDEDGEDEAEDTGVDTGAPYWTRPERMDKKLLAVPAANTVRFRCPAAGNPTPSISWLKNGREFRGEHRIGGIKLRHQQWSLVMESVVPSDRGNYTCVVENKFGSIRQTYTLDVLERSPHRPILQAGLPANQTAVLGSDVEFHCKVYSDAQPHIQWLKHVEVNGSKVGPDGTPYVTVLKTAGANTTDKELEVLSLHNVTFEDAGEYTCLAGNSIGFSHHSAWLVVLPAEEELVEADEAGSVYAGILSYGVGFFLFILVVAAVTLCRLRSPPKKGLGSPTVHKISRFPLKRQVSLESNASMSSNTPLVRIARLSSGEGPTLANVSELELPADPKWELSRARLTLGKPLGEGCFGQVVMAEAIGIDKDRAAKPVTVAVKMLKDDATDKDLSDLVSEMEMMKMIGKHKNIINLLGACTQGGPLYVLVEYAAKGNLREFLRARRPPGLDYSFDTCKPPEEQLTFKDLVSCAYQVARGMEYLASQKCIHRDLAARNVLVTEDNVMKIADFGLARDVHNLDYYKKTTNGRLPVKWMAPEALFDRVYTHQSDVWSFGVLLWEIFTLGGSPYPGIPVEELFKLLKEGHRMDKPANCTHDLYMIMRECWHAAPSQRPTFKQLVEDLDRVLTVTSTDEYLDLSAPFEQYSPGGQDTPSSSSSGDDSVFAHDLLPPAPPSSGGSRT
Fyn, sequence (P06241 whole entry, looked up): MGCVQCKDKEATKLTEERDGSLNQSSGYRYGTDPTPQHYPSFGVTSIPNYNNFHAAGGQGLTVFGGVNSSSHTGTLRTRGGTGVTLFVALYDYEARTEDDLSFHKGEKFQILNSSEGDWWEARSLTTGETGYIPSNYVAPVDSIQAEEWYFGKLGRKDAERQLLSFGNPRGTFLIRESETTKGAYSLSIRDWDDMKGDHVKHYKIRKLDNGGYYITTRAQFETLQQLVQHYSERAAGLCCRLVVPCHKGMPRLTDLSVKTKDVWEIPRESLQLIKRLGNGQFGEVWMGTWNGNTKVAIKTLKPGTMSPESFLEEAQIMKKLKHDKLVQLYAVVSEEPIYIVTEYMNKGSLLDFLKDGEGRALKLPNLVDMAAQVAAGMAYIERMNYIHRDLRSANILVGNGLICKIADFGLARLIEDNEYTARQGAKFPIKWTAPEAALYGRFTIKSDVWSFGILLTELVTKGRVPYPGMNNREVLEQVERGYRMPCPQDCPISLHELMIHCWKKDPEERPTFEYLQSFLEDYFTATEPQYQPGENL
EPHB1, sequence (P54762 whole entry, looked up): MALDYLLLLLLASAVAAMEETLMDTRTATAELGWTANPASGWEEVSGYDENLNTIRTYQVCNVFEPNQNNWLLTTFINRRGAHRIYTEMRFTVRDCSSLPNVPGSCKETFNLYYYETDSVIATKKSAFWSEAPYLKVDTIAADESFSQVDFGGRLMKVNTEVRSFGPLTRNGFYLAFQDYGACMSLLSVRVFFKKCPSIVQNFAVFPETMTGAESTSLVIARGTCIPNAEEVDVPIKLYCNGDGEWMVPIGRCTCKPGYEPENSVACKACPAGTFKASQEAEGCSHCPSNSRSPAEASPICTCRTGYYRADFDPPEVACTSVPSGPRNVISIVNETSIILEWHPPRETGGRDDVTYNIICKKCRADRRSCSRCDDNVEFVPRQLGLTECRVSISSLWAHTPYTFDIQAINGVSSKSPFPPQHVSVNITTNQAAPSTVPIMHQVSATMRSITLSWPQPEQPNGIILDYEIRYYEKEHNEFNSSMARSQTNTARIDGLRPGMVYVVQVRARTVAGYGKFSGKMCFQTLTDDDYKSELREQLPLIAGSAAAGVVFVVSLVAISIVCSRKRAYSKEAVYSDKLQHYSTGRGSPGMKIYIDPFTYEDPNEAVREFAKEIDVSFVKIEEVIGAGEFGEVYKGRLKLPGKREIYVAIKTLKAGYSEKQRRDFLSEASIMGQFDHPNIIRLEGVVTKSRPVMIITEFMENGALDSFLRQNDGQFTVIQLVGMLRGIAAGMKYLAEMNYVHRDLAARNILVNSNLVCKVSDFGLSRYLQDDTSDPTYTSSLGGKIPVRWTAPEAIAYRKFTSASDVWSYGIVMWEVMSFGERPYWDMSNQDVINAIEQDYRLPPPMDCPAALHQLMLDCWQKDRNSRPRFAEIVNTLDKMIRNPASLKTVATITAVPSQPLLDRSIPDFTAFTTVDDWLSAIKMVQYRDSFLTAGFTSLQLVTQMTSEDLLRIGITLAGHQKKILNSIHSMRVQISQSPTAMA
Jak2, sequence (O60674 whole entry, looked up): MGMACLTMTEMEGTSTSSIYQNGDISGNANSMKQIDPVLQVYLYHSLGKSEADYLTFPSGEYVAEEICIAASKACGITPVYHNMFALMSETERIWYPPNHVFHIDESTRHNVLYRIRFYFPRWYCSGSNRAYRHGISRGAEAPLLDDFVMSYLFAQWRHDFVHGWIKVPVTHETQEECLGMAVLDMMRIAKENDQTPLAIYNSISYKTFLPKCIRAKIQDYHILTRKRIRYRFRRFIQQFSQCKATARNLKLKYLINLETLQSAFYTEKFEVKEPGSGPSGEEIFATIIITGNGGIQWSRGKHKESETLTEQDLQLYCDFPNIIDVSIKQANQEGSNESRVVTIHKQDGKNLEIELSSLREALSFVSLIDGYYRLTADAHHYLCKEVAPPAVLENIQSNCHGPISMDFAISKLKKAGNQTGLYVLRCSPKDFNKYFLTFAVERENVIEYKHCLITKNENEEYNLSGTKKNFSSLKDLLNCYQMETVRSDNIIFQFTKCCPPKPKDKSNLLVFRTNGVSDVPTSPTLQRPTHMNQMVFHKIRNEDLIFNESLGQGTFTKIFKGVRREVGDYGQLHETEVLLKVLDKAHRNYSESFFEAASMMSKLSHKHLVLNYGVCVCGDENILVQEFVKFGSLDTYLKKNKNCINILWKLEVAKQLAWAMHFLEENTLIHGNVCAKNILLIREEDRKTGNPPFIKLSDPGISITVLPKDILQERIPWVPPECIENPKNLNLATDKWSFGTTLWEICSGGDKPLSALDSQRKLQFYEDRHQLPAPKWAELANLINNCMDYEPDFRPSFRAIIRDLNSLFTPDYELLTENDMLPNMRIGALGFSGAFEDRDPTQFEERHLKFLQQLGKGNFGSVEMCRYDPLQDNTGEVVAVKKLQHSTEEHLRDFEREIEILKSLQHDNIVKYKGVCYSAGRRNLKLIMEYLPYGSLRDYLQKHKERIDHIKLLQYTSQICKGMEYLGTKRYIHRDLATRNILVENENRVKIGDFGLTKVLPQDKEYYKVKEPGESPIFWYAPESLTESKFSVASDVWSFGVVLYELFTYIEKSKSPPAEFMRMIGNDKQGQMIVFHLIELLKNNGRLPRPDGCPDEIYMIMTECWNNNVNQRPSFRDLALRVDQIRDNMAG
Hck, sequence (P08631 whole entry, looked up): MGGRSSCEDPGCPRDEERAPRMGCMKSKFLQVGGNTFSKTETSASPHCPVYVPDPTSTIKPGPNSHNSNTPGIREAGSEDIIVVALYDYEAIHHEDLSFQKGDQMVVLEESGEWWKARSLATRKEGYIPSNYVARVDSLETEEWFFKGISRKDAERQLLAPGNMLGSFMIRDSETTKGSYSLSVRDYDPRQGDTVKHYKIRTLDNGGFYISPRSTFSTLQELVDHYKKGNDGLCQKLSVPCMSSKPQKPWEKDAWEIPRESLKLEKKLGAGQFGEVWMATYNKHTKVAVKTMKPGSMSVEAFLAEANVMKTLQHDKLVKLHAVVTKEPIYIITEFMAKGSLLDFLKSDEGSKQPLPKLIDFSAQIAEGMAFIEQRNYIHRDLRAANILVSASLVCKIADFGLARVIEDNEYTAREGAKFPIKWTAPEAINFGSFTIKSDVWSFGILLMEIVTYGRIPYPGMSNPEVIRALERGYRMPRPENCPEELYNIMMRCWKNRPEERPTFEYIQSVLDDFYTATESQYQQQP

Sequence	phosphorylation enrichment (Jak2)	phosphorylation enrichment (EPHB2)	phosphorylation enrichment (Hck)	phosphorylation enrichment (Fyn)	phosphorylation enrichment (FGFR3)	phosphorylation enrichment (c-Src)	phosphorylation enrichment (Fer (mouse))	phosphorylation enrichment (Fes)	phosphorylation enrichment (AncSZ)	phosphorylation enrichment (MERTK)	phosphorylation enrichment (FGFR1)	phosphorylation enrichment (EPHB1)	phosphorylation enrichment (c-Abl (mouse))	SH2 binding enrichment (Grb2 SH2)	SH2 binding enrichment (SHP2-C SH2)	SH2 binding enrichment (c-Src SH2)
LTMAPYSSVSV [FAM81A_Y24_L29V]	0.933	0.531	0.724	0.575	0.899	1.07	9.11	1.08	1.05	0.527	0.653	0.683	0.811	0.783	3.6	3.26
TQFWLYFAGNL [SLC25A5_Y112]	1.64	0.665	0.479	0.376	1	0.652	0.498	1.57	1.23	0.576	0.534	0.681	1.22	0.742	0.557	0.509
QEGPEYWDGNT [HLA-B_Y83_R86G]	1.98	0.959	0.833	0.548	1.56	0.854	0.533	1.97	1.93	0.709	1.11	0.762	1.08	0.908	0.653	0.367
GQKVAYGGTED [ALDH3A1_Y305_G309E]	0.791	0.471	0.402	0.438	0.63	0.412	0.344	0.939	0.747	0.417	0.412	0.424	0.577	0.788	0.549	0.471
LPEENYQVLRF [ARHGAP1_Y365]	1.44	1.41	2.82	0.768	2.17	1.32	2.13	1.39	1.43	0.802	2.81	4.13	1.18	1.53	0.784	0.548
CTTIHYNYMWN [TP53_Y234_C238W]	0.966	0.746	0.544	0.569	0.976	0.496	1.77	1.32	1.21	1.82	1.21	1.12	0.824	1.11	1.18	0.874
CEHFSYYGMKA [SLC15A2_Y60_R57H]	5.02	0.644	1.93	0.866	3.17	2.37	0.812	0.933	1.06	1.54	5.26	0.52	0.708	0.961	0.661	1.24
KFMVGYEMLAK [GALT_Y339_Q344K]	0.698	0.604	0.586	0.507	0.631	0.406	0.349	1.03	0.914	0.407	0.776	0.477	0.51	0.867	0.544	1.7
KILGRYFETSS [PAX2_Y72_G76S_YF]	0.706	0.406	0.508	0.374	0.633	0.341	0.432	0.694	0.648	0.358	0.469	0.424	0.529	1.12	1.07	0.611
LTRDIYKNDFF [ROS1_Y2110_A2106T_YF]	0.79	0.495	0.717	0.836	0.963	0.475	0.937	1.07	0.974	0.723	1.05	0.683	0.673	1.48	0.731	0.395
GSSSSCGQHGS [HRNR_Y517_Y517C]	0.448	0.311	0.333	0.4	0.522	0.283	0.38	0.622	0.556	0.294	0.363	0.342	0.411	0.982	0.875	0.553
KDHLDYKYQPR [SOX9_Y172_P170L]	0.452	0.448	0.415	0.441	0.629	0.433	0.445	0.704	0.585	0.418	0.462	0.419	0.451	1.18	1.09	0.697
RKGGSYTQAAS [HLA-A_Y344]	0.637	0.399	0.443	0.465	0.563	0.384	0.699	0.885	0.631	0.461	0.442	0.446	0.902	1.07	0.584	1.06
VGEGPYLLSDL [ABCC12_Y7_I9L]	0.83	0.559	0.432	0.565	0.605	0.71	0.508	0.941	0.839	0.385	0.484	0.461	0.586	0.641	0.547	0.361
LDYNEYFRDLN [HPRT1_Y198]	1.68	0.753	0.661	0.828	1.28	0.649	0.555	1.33	1.81	0.519	1.39	0.741	1.13	0.727	0.861	0.645
VIKDKYPKARY [APTX_Y209]	0.83	0.417	0.373	0.256	0.551	0.454	0.426	0.699	0.728	0.38	0.44	0.376	0.692	1.31	1.05	1.25
NKVFTYIFIME [SCN4A_Y1074_D1069N]	1.46	0.613	0.509	0.46	0.857	0.487	0.589	1.71	1.28	0.419	0.507	0.685	0.99	0.745	0.765	0.342

Sequence	phosphorylation enrichment (Jak2)	phosphorylation enrichment (EPHB2)	phosphorylation enrichment (Hck)	phosphorylation enrichment (Fyn)	phosphorylation enrichment (FGFR3)	phosphorylation enrichment (c-Src)	phosphorylation enrichment (Fer (mouse))	phosphorylation enrichment (Fes)	phosphorylation enrichment (AncSZ)	phosphorylation enrichment (MERTK)	phosphorylation enrichment (FGFR1)	phosphorylation enrichment (EPHB1)	phosphorylation enrichment (c-Abl (mouse))	SH2 binding enrichment (Grb2 SH2)	SH2 binding enrichment (SHP2-C SH2)	SH2 binding enrichment (c-Src SH2)
QKNVSYVSTVS [TASOR_Y1043]	0.401	1.75	0.47	0.532	0.506	0.335	0.403	0.514	0.815	0.509	0.405	0.285	0.38	0.679	0.891	0.26
DLDFTYIYPNI [PTEN_Y27_L25F]	2.36	0.945	1.37	2.5	3.11	1.47	0.501	1.23	4.17	1.22	4.18	0.83	0.953	0.67	0.496	2.69
DRQASYLDKVR [KRT16_Y131_L128Q]	0.609	0.419	0.399	0.418	0.424	0.385	0.324	0.662	0.536	0.388	0.39	0.39	0.494	0.846	0.614	0.465
IVLRSYPASDH [NID2_Y449_G453D]	0.743	0.495	0.44	0.478	0.546	0.416	0.44	0.823	0.966	0.465	0.496	0.543	0.583	1.01	0.793	0.467
QMVGMYASFFM [AVPR2_Y124_S127F_YF]	2.03	2.27	5.82	9.8	1.5	8.13	5.31	2.03	1.88	5.38	0.676	3.06	4.72	0.642	0.782	0.602
TVLWWYTGTRP [UGT1A1_Y337_R336W]	1.23	0.513	0.41	0.4	0.68	0.311	0.398	1.32	1.3	0.277	0.389	0.458	0.599	1.02	2.08	0.752
PGAPAYCVLME [MYO5A_Y1245_R1246C]	1.25	1.5	1.38	1.12	1.64	0.964	0.876	1.44	1.64	4.03	1.58	3.07	1.27	0.628	0.549	0.883
NFRTIYVNANE [KCNH2_Y475_T474I]	0.717	0.5	0.525	0.423	0.529	0.44	0.428	0.775	0.659	0.367	0.417	0.543	0.509	19	8.36	3.07
GKSFIYAAFHA [KCNT1_Y563_T562I]	1.32	0.522	2.83	4.67	0.805	3.84	0.672	1.25	1.18	1.72	0.452	0.787	2.75	0.893	1	0.685
VMIFAYLLHRG [PTEN_Y138_C136Y_YF]	0.739	0.392	0.406	0.352	0.422	0.415	0.378	0.828	0.807	0.325	0.383	0.447	0.781	1.59	1.52	0.837
ARLEFYENEKK [IRS1_Y47_YF]	0.887	0.597	0.451	0.439	0.604	0.411	0.406	0.995	1.1	0.462	0.58	0.623	0.492	1.18	1.19	2.68
PVKSEYPSIKL [NPC2_Y119]	0.557	0.562	0.515	0.509	0.623	0.364	0.433	0.822	0.456	0.465	0.579	0.358	0.654	0.752	0.592	0.68
LVMFIDAIFGM [SCN1A_Y1684_Y1684D]	1.79	1.67	1.38	1.13	2.33	0.91	1.63	3.65	2.28	1.1	1.07	2	1.74	1.15	1.15	0.698
DLSEVYKPRRK [CCDC93_Y176]	0.574	0.454	0.407	0.579	0.575	0.573	0.521	0.623	0.761	0.634	0.352	0.513	0.59	0.414	0.481	0.315
FRPPFYHRNCM [HGD_Y334_YF]	0.761	0.489	0.48	0.472	0.605	0.402	0.489	1.04	0.921	0.426	0.426	0.417	0.649	0.935	0.913	1
HFVDEYDPTIE [KRAS_Y32]	1.54	0.99	0.828	0.605	0.888	0.779	0.886	1.79	1.74	0.724	0.884	0.784	1.33	0.786	0.666	0.575

Source: the supplement of paper PMC10065799, “High-throughput profiling of sequence recognition by tyrosine kinases and SH2 domains using bacterial peptide display” (eLife, 2023)
